Source: IntAct's records for PubMed 18829461

B1: Protein phosphatase 1A (Homo sapiens), P35813 (parent)
chain: MGAFLDKPKMEKHNAQGQGNGLRYGLSSMQGWRVEMEDAHTAVIGLPSGLESWSFFAVYDGHAGSQVAKYCCEHLLDHITNNQDFKGSAGAPSVENVKNGIRTGFLEIDEHMRVMSEKKHGADRSGSTAVGVLISPQHTYFINCGDSRGLLCRNRKVHFFTQDHKPSNPLEKERIQNAGGSVMIQRVNGSLAVSRALGDFDYKCVHGKGPTEQLVSPEPEVHDIERSEEDDQFIILACDGIWDVMGNEELCDFVRSRLEVTDDLEKVCNEVVDTCLYKGSRDNMSVILICFPNAPKVSPEAVKKEAELDKYLECRVEEIIKKQGEGVPDLVHVMRTLASENIPSLPPGGELASKRNVIEAVYNRLNPYKNDDTDSTSTDDMW

Variants of: B1
Conditions: with cdk9_human CDK9, P50750
Sequence of cdk9_human CDK9, P50750 (P50750 whole entry): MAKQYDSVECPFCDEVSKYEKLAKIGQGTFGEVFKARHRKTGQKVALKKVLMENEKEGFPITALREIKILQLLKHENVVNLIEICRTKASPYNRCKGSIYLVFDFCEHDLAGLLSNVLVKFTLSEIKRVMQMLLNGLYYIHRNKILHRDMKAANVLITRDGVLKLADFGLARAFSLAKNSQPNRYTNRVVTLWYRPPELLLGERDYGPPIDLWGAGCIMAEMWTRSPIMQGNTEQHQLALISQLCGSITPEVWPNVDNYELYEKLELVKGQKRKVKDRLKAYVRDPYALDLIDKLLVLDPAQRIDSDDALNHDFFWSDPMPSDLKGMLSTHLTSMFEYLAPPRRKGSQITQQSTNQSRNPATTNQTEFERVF

| Variant | effect of a mutation on the interaction |
| --- | --- |
| D239N | with no effect |
